Starred links: 1 amine or outer side, 2 acyl side, 3 side chain; linkers in the order of their positions; H or OH if unused. Non-standard residues stand in square brackets, D forms with d. Groups on a side chain read outwards from the residue. No end group written: not given here. *: point of attachment. Decanoyl(10-(4-HOOC-PhO)) = O=C(O)c1ccc(OCCCCCCCCCC(=O)*)cc1; γGlu = O=C(O)[C@H](CCC(=O)[*:2])N[*:1]; AEEA = NCCOCCOCC(=O)O; Aib = CC(C)(N)C(=O)O
What was measured:
[1] = in words; PCT/EP2019/052487; cited from earlier work
[2] = Assay IV: Pharmacokinetic studies in Beagle dogs (oral exposure); assay type: in vivo; details: peroral
Procedure: Pharmacokinetic (PK) studies in Beagle dogs are conducted to determine the exposure of the PYY compound after peroral administration of different dosage forms.
For the pharmacokinetic studies male Beagle dogs are used, 1 to 5 years of age and weighing approximately 10-12 kg at the start of the studies. The dogs are group housed in pens (12 hours light: 12 hours dark), and fed individually and restrictedly once daily with Royal Canin Medium Adult dog (Royal Canin Products, China Branch, or Brogaarden A/S, Denmark). Exercise and group social are permitted daily, whenever possible. The dogs are used for repeated pharmacokinetic studies with a suitable wash-out period between successive dosings. An appropriate acclimatisation period is given prior to initiation of the first pharmacokinetic study. All handling, dosing and blood sampling of the animals are performed by trained and skilled staff. Before the studies the dogs are fasted overnight and from 0 to 4 h after dosing. Besides, the dogs are restricted to water 1 hour before dosing until 4 hours after dosing, but otherwise have ad libitum access to water during the whole period.
The tablets comprising the PYY compound are administered in the following manner: 10 min prior to tablet administration the dogs are dosed subcutaneously with approximately 3 nmol/kg of SEQ ID NO: 34). The PYY tablets are placed in the back of the mouth of the dog to prevent chewing. The mouth is then closed and tap water is given by a syringe or gavage to facilitate swallowing of the tablet.
Blood is sampled at predefined time points for up till 10 hr post dosing to adequately cover the full plasma concentration-time absorption profile of the PYY compound.
For each blood sampling time point approximately 0.8 mL of whole blood is collected in a 1.5 mL EDTA coated tube, and the tube is gently turned to allowing mixing of the sample with the EDTA. Blood samples (for example 0.8 mL) are collected in EDTA buffer (8 mM) and then centrifuged at 4° C. and 2000 G for 10 minutes. Plasma is pipetted into Micronic tubes on dry ice and kept at −20° C. until analysis. […]
PYY compound was assayed in dog plasma by plasma protein precipitation and turboflow liquid chromatography tandem mass spectrometry (TF-LC-MS/MS). […] The mixture was analysed by TF-LC-MS/MS using a Cyclone turboflow column (0.5×50 mm, ThermoFisher Scientific) and an Aeris Peptide 3.6 um XB-C18 analytical column (50×2.1 mm, Phenomenex) or a Poroshell SB-C18 2.7 um analytical column (50×2.1 mm, Agilent). […] The deviation between nominal and calculated concentration in the calibrators and quality control samples was below 20%. […]

[3] = Test 4 tablet, SNAC amount 100 mg
[4] = Test 3 tablet, SNAC amount 300 mg

N-epsilon26-[2-(2-{2-[2-(2-{2-[(S)-4-carboxy-4-(17-carboxyheptadecanoylamino) butyrylamino]ethoxy}ethoxy)acetylamino]ethoxy}ethoxy)acetyl][Aib8,Arg34]GLP-1(7-37) [Semaglutide]
Oral availability when formulated in a SNAC formulation [1]: orally available

N-epsilon27-[2-[2-[2-[[2-[2-[2-[[(4S)-4-carboxy-4-[10-(4-carboxyphenoxy)decanoylamino]butanoyl]amino]ethoxy]ethoxy]acetyl]amino]ethoxy]ethoxy]-acetyl], N-epsilon36-[2-[2-[2-[[2-[2-[2-[[(4S)-4-carboxy-4-[10-(4-carboxyphenoxy)decanoylamino]-butanoyl]amino]ethoxy]ethoxy]acetyl]amino]ethoxy]ethoxy]acetyl]-[Aib8,Glu22,Arg26,Lys27, Glu30,Arg34,Lys36]-GLP-1-(7-37)-peptidyl-Glu-Gly (H[Aib]EGTFTSDVSSYLEEQAARK([AEEA-AEEA-γGlu-Decanoyl(10-(4-HOOC-PhO))])FIEWLVRGK([AEEA-AEEA-γGlu-Decanoyl(10-(4-HOOC-PhO))])GEG) [GLP-1 agonist A]
Oral availability when formulated in a SNAC formulation [1]: orally available

N{alpha-4}-(3-Methylbutanoyl)-N{Epsilon-7}-6-[[(4S)-4-carboxy-4-(17-carboxy-heptadecanoylamino)butanoyl]amino]hexanoyl-[Arg4,Lys7,Gln18,Ile22,Tyr28, Trp30,Leu31]hPYY(4-36) [Compound 32]
Dose corrected AUC 0-30 min [2, 3]: 5.05 arbitrary unit
Dose corrected exposure t = 30 min [2, 3]: 0.268 kg/L

N{alpha-4}-(3-Methylbutanoyl)-N{Epsilon-7}-6-[[(4S)-4-carboxy-4-(17-carboxy-heptadecanoylamino)butanoyl]amino]hexanoyl-[Arg4,Lys7,Pro9,Gln18,Tyr28,Trp30,Leu31]hPYY(4-36) [Compound 4]
Dose corrected AUC 0-30 min [2, 4]: 2.24 arbitrary unit
Dose corrected exposure t = 30 min [2, 4]: 0.138 kg/L

Source: patent US20220280611A1, “SOLID COMPOSITION COMPRISING A PYY COMPOUND AND A SALT OF N-(8-(2- HYDROXYBENZOYL)AMINO)CAPRYLIC ACID” (Novo Nordisk A/S, priority 2019, published 2022)
